Measured values published in patent publication US20250152717A1 (AFFINI T THERAPEUTICS, published 2025).

Biological target: RAB7B-derived peptide presented by HLA-A11 (human)
Test: cell-based or functional assay
Set-up: unit not given beside the values

EC50 of the peptide dose-response of CD137 expression, sort-purified TCR 11N4A-transduced T cells: ~35
B1: TCR 11N4A (TCR, V domains shown)
V domain 1: DQQVKQNSPSLSVQEGRISILNCDYTNSMFDYFLWYKKYPAEGPTFLISISSIKDKNEDGRFTVFLNKSAKHLSLHIVPSQPGDSAVYFCAASGVSGNTPLVFGKGTRLSVIA
V domain 2: GVTQTPRYLIKTRGQQVTLSCSPISGHRSVSWYQQTPGQGLQFLFEYFSETQRNKGNFPGRFSGRQFSNSRSEMNVSTLELGDSALYLCASSVGTVEQYFGPGTRLTVTE
